From article PMC6355197

Biological target: afTMEM16 scramblase from Aspergillus fumigatus (Aspergillus fumigatus)
Experiment: cryo-EM structure; afTMEM16 in MSP1E3 nanodiscs of 3 POPE:1 POPG; three samples: 0.5 mM Ca2+, Ca2+-free (5 mM EDTA), 0.5 mM Ca2+ with 5 mole% C24:0 ceramide; buffer D (150 mM KCl, 50 mM Tris pH 8.0); maps refined in C1 and C2

- stoichiometry N: 2
Substance: afTMEM16 scramblase from Aspergillus fumigatus (natural protein)
